What was measured:
Assay in all cases: EMSA
Conditions in all cases: EMSA: fluorescein-12 ssRNA incubated with MBP-tagged proteins, agarose gel; buffer, salt, pH and temperature not in the material
[1] = system: Pdd1p WT_HNG1 (hinge region 1) (Tetrahymena (species not given))
[2] = system: Pdd1p MIM22+Ins6K_FL (Tetrahymena (species not given))
[3] = system: Pdd1p WT_HNG2 (hinge region 2) (Tetrahymena (species not given))
[4] = system: Pdd1p WT_FL (Tetrahymena (species not given))
[5] = system: Pdd1p MIM14_FL (Tetrahymena (species not given))

In the case of EGFP ssRNA, the Kd [1] is reported as 130 nM, the Kd [2] is reported as 347 nM and the Kd [3] is reported as greater than 630 nM. The Kd [4] was 65 nM and the Kd [5] was 340 nM.

— paper PMC4695338
